Target: T1, biotin-labelled EZH2 protein (UniProt Q15910 1-746, limits assumed, biotin label (EZ-link NHS-PEO4-Biotinylation kit))
T1 construct: Probe in solution (1 ug/ml) on the KDM2B peptide microarray; also called NHS-PEO4-Biotinylation-labelled EZH2 protein; recombinant protein
Assay: KDM2B peptide array probed with biotin-EZH2 1 ug/ml, SA-HRP/ECL;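 further: Background-corrected optical density of each spot on the membrane, given as percent of the brightest spot (100%), color developed for 5 minutes; 100% is the highest background-corrected spot optical density on the membrane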
Protocol: After blocking, the polypeptide microarray was incubated with biotin-labeled target protein for hybridization, visualized with the chemical chromogenic substrate and imaged using a Chempchemi digital imager. The image of colored polypeptide microarray was analyzed for the optical density of the colored points. Particularly, the optical density of each colored point was calculated using the optical density of the respective surrounding background as a reference for background correction. The highest optical density value of the colored point on membrane was set to 100%, and the optical density value of the remaining colored points was converted into percentages relative to the highest value. The points with an optical density percentage of more than 30% on the polypeptide membrane and also with an optical density percentage of less than 30% on the negative membrane were defined as positive colored points.
For the hybridization experiment, a solution of NHS-PEO4-Biotinylation-labelled EZH2 protein (1 μg/ml) was used for the hybridization of the polypeptide microarray. Streptavidin-HRP was used to amplify the reaction signal according to the experimental procedure and conditions described above, and the time of color development was 5 minutes.

T1 sequence (Q15910 whole entry): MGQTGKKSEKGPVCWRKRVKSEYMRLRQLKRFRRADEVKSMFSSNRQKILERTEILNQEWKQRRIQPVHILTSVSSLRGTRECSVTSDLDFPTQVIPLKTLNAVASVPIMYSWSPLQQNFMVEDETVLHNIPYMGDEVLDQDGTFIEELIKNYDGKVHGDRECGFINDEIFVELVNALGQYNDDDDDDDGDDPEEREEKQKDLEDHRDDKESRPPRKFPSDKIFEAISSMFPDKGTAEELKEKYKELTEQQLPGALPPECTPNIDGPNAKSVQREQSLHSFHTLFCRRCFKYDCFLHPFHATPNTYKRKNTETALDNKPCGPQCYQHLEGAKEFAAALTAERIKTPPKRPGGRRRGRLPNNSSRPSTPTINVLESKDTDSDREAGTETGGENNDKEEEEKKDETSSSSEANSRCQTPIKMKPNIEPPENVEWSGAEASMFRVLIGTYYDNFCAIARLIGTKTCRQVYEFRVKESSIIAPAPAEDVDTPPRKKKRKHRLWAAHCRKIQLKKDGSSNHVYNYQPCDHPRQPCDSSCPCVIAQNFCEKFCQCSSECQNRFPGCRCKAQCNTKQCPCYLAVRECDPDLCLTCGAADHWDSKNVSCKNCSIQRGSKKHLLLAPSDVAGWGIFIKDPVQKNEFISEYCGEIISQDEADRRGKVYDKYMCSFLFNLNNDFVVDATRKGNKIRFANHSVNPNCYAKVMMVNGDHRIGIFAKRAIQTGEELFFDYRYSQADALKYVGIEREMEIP

| Intensity (%) | Binder |
| --- | --- |
| 0.36 | RDVKLLVGSRRLVDV [peptide 26] |
| 2.09 | SVQFGQVEEKLLQKL [peptide 265] |
| 0.64 | MDNRSKLRNIVELRL [peptide 242] |
| 7.03 | NRLPGLRDLVLSGCS [peptide 230] |
| 1.15 | HMPLLSKLHLSYCNH [peptide 248] |
| 0 | SKLHLSYCNHVTDQS [peptide 249] |
| 11.8 | AAHVMHREVWMAVFS [peptide 213] |
| 0.22 | INLLTAVGTTTRDSL [peptide 252] |
| 0 | TEGAEGPEEKKKVKM [peptide 185] |
| 1.04 | EPESEGEEPKRPPGI [peptide 196] |
| 2.02 | SCPLLRTLDVQWVEG [peptide 235] |
| 0 | LPNKELSRELSKELN [peptide 189] |
| 0 | VTDQSINLLTAVGTT [peptide 251] |
| 1.91 | LRSPPRVISRPPPSV [peptide 204] |
| 0 | QLGPSLRSPPRVISR [peptide 203] |
| 3.66 | RLIIRHMPLLSKLHL [peptide 247] |
| 2.54 | LIFREKDGLGIKMPD [peptide 22] |
| 0.51 | PVSLDLSWTNISKKQ [peptide 226] |
| 5.21 | RYCKQVTKEGCEQFI [peptide 261] |
| 34.8 | WIAVSALCSSSCPLL [peptide 233] |
| 2.82 | MAVFSYLSHQDLCVC [peptide 215] |
| 0.92 | KLRNIVELRLAGLDI [peptide 243] |
| 0 | SKELNHEIQRTENSL [peptide 191] |
| 4.32 | CCDKRLWTRIDLNHC [peptide 220] |

| Intensity (%) | Binder |
| --- | --- |
| 0.26 | LSRELSKELNHEIQR [peptide 190] |
| 0.02 | PDFTVRDVKLLVGSR [peptide 25] |
| 4.09 | LWTRIDLNHCKSITP [peptide 221] |
| 0 | ELPEAPPKTRESDHS [peptide 180] |
| 0 | LRRFKQEPEDELPEA [peptide 178] |
| 0 | GEEPKRPPGICERPH [peptide 197] |
| 1.18 | QWVEGLKDAQMRDLL [peptide 237] |
| 0 | SPPKCIQMERHVIRP [peptide 207] |
| 0 | HREVWMAVFSYLSHQ [peptide 214] |
| 0.39 | QEPEDELPEAPPKTR [peptide 179] |
| 0 | DLNHCKSITPLMLSG [peptide 222] |
| 0.62 | LKDAQMRDLLSPPTD [peptide 238] |
| 0 | PLDDGAAHVMHREVW [peptide 212] |
| 0 | ANENQQPIKSEPESE [peptide 194] |
| 0.9 | VELRLAGLDITDASL [peptide 244] |
| 0 | SPPTDNRPGQMDNRS [peptide 240] |
| 5.43 | SDCNKVTDQCLSFFK [peptide 256] |
| 95.4 | LSGCSWIAVSALCSS [peptide 232] |
| 0.31 | AGLDITDASLRLIIR [peptide 245] |
| 0 | KDGLGIKMPDPDFTV [peptide 23] |
| 0 | PPDSLPLDDGAAHVM [peptide 211] |
| 0 | LANKPLRRFKQEPED [peptide 177] |
| 0.8 | RRKRRLPNKELSREL [peptide 188] |
| 22.3 | CHIDLRYCKQVTKEG [peptide 260] |

| Intensity (%) | Binder |
| --- | --- |
| 0 | TENSLANENQQPIKS [peptide 193] |
| 0.95 | KKVKMRRKRRLPNKE [peptide 187] |
| 1 | MRDLLSPPTDNRPGQ [peptide 239] |
| 0 | SYCNHVTDQSINLLT [peptide 250] |
| 3.59 | ALCSSSCPLLRTLDV [peptide 234] |
| 0.91 | RFSKGLNGTPRELRH [peptide 200] |
| 0.18 | CERPHRFSKGLNGTP [peptide 199] |
| 100 | LRDLVLSGCSWIAVS [peptide 231] |
| 0.19 | DLCVCMRVCRTWNRW [peptide 217] |
| 0 | DFNYEYVQREALRVP [peptide 19] |
| 1.36 | RCGNICHIDLRYCKQ [peptide 259] |
| 2.29 | QPIKSEPESEGEEPK [peptide 195] |
| 2.1 | RTLDVQWVEGLKDAQ [peptide 236] |
| 1.28 | YVQREALRVPLIFRE [peptide 20] |
| 1.29 | PPPSVSPPKCIQMER [peptide 206] |
| 0.19 | HEIQRTENSLANENQ [peptide 192] |
| 0 | IKMPDPDFTVRDVKL [peptide 24] |
| 0 | YLSHQDLCVCMRVCR [peptide 216] |
| 2.91 | AEMSVSVQFGQVEEK [peptide 264] |
| 0 | GPEEKKKVKMRRKRR [peptide 186] |
| 0 | LMLSGIIRRQPVSLD [peptide 224] |
| 21.1 | ALRVPLIFREKDGLG [peptide 21] |
| 2.93 | MRVCRTWNRWCCDKR [peptide 218] |
